Reference: the RNAGym collection of RNA variant scans (doi:10.7554/elife.90254)

B1: LINE1-mini (parent)
chain: GGCAGAGCUCAACACAGCGUGGCAAAGUGGCUGUGGCUAGACUGCC

Variants of: B1
Assay: self-cleavage, relative activity (ratio to wild type); higher = more cleavage; in vitro, sequencing; the parent is a self-cleaving ribozyme
For GGUAGAGCUCAACACAGCGUGGCAAAGUGGCUGUGGCUGGACUGCC [C3U A39G], the self-cleavage was 0.2.
Work on GGCAGAGCUCAACACAGCGUCGCAAAGUGGCUGUGGCGAGACUGCC [G21C U38G] yielded a self-cleavage of 0.02.
For GGCAGAGCUCAACACAGCGUGGCAAAGUGGCUGUGGCUAGAAUGUC [C42A C45U], the self-cleavage was 0.13.
For GGCAGAGCUAAACACAGCGUGGCAAAGUGGGUGUGGCUAGACUGCC [C10A C31G], the self-cleavage was 0.03.
GGCAGAGCUCAACGCAGCGUGGCAAAGUGGCCGUGGCUAGACUGCC [A14G U32C] showed a self-cleavage of 0.08.
With GGCAGAGCUCAACACAGCGUGGCAAAGUGGCUACGGCUAGACUGCC [G33A U34C] the self-cleavage was 0.09.
For GGCAGAGCUCAACACAGCGUGGCAAAGUGGCAGUGGCUAGAUUGCC [U32A C42U], the self-cleavage was 0.05.
GUCAGAGCUCAACACAGCGUGGCAAAGUGGCUGUGGCUAGAUUGCC [G2U C42U] showed a self-cleavage of 0.1.
Work on AGCAGAGCUCAACACAGCGUGGCAACGUGGCUGUGGCUAGACUGCC [G1A A26C] yielded a self-cleavage of 0.78.
Work on GGCAGAGCUCAACAAAGCGUGGCAAAGUGGCUGUGGCUAGAUUGCC [C15A C42U] yielded a self-cleavage of 0.05.
GGCAGAGCUCAACACAGCGUUGCAAAGUGGCUGGGGCUAGACUGCC [G21U U34G] gave a self-cleavage of 0.34.
Variant GGCAGAGCUCAGCACAGCGUGGCAAAGGGGCUGUGGCUAGACUGCC [A12G U28G] has a self-cleavage of 0.01.
GGCAGAGCUCAACACAGCGUGGCAAAGUGGCUGUGGCUAGACCGCA [U43C C46A] showed a self-cleavage of 0.11.
Variant GCCAGAGCUCAACACAGCAUGGCAAAGUGGCUGUGGCUAGACUGCC [G2C G19A] has a self-cleavage of 0.17.
Variant GGCAGAGCUCAACACAGCGUGGCAAACUGCCUGUGGCUAGACUGCC [G27C G30C] has a self-cleavage of 0.84.
GGCAGACCUCAACACAGCGUGGCAAAGUGGCUGUGGUUAGACUGCC [G7C C37U] gave a self-cleavage of 0.13.
GGCAGAGCUCAACACAGCGUGGCAAAGUGGCUGAGGCUCGACUGCC [U34A A39C] showed a self-cleavage of 0.12.
GGCAGAACUCAACAUAGCGUGGCAAAGUGGCUGUGGCUAGACUGCC [G7A C15U] gave a self-cleavage of 0.24.
GGCAGAGCUCAACACAGCGUGGCUAAGUGGCUGUGGGUAGACUGCC [A24U C37G] showed a self-cleavage of 0.05.
In the case of GGCAGAGCUCAACACAGCGUGGCAAAGUGGCUGUGGCUAGACUGAA [C45A C46A], the self-cleavage is reported as 0.24.
For GGCAGAGCUCAACACAGGGUGGCAACGUGGCUGUGGCUAGACUGCC [C18G A26C], the self-cleavage was 0.86.
GGCAGAGCUCAACACAGCGUGUCAAAGUCGCUGUGGCUAGACUGCC [G22U G29C] showed a self-cleavage of 0.84.
GGCAGAGCUCAACACAGCGUGGCAUACUGGCUGUGGCUAGACUGCC [A25U G27C] gave a self-cleavage of 0.52.
Variant GGCAGAGCUCAACACAGCGUGGCAAAGUGGCUGUGGCUAGACCCCC [U43C G44C] has a self-cleavage of 0.08.
Work on GGCAGAGCUCAAAACAGCUUGGCAAAGUGGCUGUGGCUAGACUGCC [C13A G19U] yielded a self-cleavage of 0.09.
GGCAGACCUCAACACAGCGUGGGAAAGUGGCUGUGGCUAGACUGCC [G7C C23G] showed a self-cleavage of 0.1.
GGCAGUGCUCAACACAGCGUGGCAAAGUGGCUGUGGCUAGACUGGC [A6U C45G] gave a self-cleavage of 0.3.
Variant GUCAGAGCUCAACACAGCGUGGCAAAGCGGCUGUGGCUAGACUGCC [G2U U28C] has a self-cleavage of 0.06.
In the case of GGGAGAGCUCAAUACAGCGUGGCAAAGUGGCUGUGGCUAGACUGCC [C3G C13U], the self-cleavage is reported as 0.37.
Variant GGCAGAGCUCAACACAGCGUGGCAAAUUGGCUGUGGCUAGACUGUC [G27U C45U] has a self-cleavage of 1.6.
In the case of GGAAGAGCUCAACACCGCGUGGCAAAGUGGCUGUGGCUAGACUGCC [C3A A16C], the self-cleavage is reported as 0.12.
Variant GGCAGAGCUCAACAAAGCGUGGCAAAGUGGCUGUGGCUAGACUGCU [C15A C46U] has a self-cleavage of 0.12.
Variant GGCAGAGCUCAACACAGCGUGGCAAAGUGGAUGUAGCUAGACUGCC [C31A G35A] has a self-cleavage of 0.04.
With GGCAGAGCUCAACACAGCGUGGCCAAGUGGCUGUGUCUAGACUGCC [A24C G36U] the self-cleavage was 0.1.
In the case of GGCAGAGCUCAACACAGCGUGGCAGAGUGGCUGUGGCUAGACUGGC [A25G C45G], the self-cleavage is reported as 0.17.
Work on GGCAGAGCUAAACACAGCGUUGCAAAGUGGCUGUGGCUAGACUGCC [C10A G21U] yielded a self-cleavage of 0.04.
GGCAGAGGUCAACAUAGCGUGGCAAAGUGGCUGUGGCUAGACUGCC [C8G C15U] showed a self-cleavage of 0.1.
GGUAGAGCUCAACACAGCGUGGCAAAGUGGCUGUGGGUAGACUGCC [C3U C37G] gave a self-cleavage of 0.05.
Variant GGCAGAGCUCAACACAGCGGGGCAAAGUGGCUGUGGCUAGACUGCG [U20G C46G] has a self-cleavage of 0.45.
Variant GGCAGAGCACAACACAGCGUGGCAAAGUGGCUGUGGCUAGGCUGCC [U9A A41G] has a self-cleavage of 0.05.
For GGUAGAGCUCAACACAGCGUGGCGAAGUGGCUGUGGCUAGACUGCC [C3U A24G], the self-cleavage was 0.24.
For GGCAGAGCUCAACACAGCGUGGCAUAGUGGCUGUGGCUAGACUGUC [A25U C45U], the self-cleavage was 2.13.
GGCAGAGCUGAACACAGGGUGGCAAAGUGGCUGUGGCUAGACUGCC [C10G C18G] showed a self-cleavage of 0.04.
GGCAGAGCUCAACAUAGCGCGGCAAAGUGGCUGUGGCUAGACUGCC [C15U U20C] showed a self-cleavage of 0.32.
With GGCAGAGCUCAACACAGCGUGGCAAAUUGGCUCUGGCUAGACUGCC [G27U G33C] the self-cleavage was 0.07.
Work on GGCGGAGCUCAACACCGCGUGGCAAAGUGGCUGUGGCUAGACUGCC [A4G A16C] yielded a self-cleavage of 0.12.
In the case of GGCAGAGCUCCACACAGCGUGGCAAAUUGGCUGUGGCUAGACUGCC [A11C G27U], the self-cleavage is reported as 0.05.
GGCAGAGCUCAACACAGCGUGGCAAAGGGGCUCUGGCUAGACUGCC [U28G G33C] showed a self-cleavage of 0.05.
For GGCAGAGCUUAACACAGCGUGGUAAAGUGGCUGUGGCUAGACUGCC [C10U C23U], the self-cleavage was 0.43.
GGCAGAGCUCAACACAGCGUGGCAAAGUGGCUCUGACUAGACUGCC [G33C G36A] gave a self-cleavage of 0.03.
Variant GGCAGAGCUCAACACAGCGUAGCAAAGUGGCUGUGGCUAGACGGCC [G21A U43G] has a self-cleavage of 0.14.
Work on GGCAGAGCUCAAUACAGCGUGGUAAAGUGGCUGUGGCUAGACUGCC [C13U C23U] yielded a self-cleavage of 0.22.
GGCAGAGCUCAACACAGCGUGGCAAAGUGCGUGUGGCUAGACUGCC [G30C C31G] showed a self-cleavage of 0.44.
Work on GGCAGAGCUCAACACAGCGUGGCAAAGUGGCCGAGGCUAGACUGCC [U32C U34A] yielded a self-cleavage of 0.05.
Variant GGCAGACCUCAACACAGCGUGGCCAAGUGGCUGUGGCUAGACUGCC [G7C A24C] has a self-cleavage of 0.09.
Work on GGCAGAGCUCAACACAGCGUGGCAACGUGGCUGUGGCUAGUCUGCC [A26C A41U] yielded a self-cleavage of 0.72.
